Measured values published in the supplement of paper PMC10724198.
± gives the standard deviation of the averaged measurements.

The sequences below were run on Saccharomyces cerevisiae (assay: protein stability index of tFT-peptide fusion (C-terminal peptide) (PSI (0-1 scale)); higher = more stable (slower turnover)). Conditions: genetic background: wild type; temperature: 30 C.
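Further: PSI is a weighted mean of sequencing reads over stability bins, variants kept only with over 10 reads, mCherry proximal and sfGFP distal, peptide attached via GGGS linker.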

Going from LLLSALLLSASP to LLLSALSRRPSF, the protein stability index rises from 0.625 ± 0.0083 to 0.678 ± 0.023.

Going from LLLSRLSPPPPS to LLLVLGLSLVGL, the protein stability index falls from 0.716 ± 0.021 to 0.564 ± 0.035.

LLMHPCTVELIS and LLPCLSSLPPLP are within error of each other in protein stability index: 0.594 ± 0.042 for the first, 0.7 ± 0.064 for the second.

LLPHALHVPFHL and LLPHLLVLLPSS are within error of each other in protein stability index: 0.707 ± 0.1 for the first, 0.623 ± 0.0049 for the second.

LLPISFVSPPPG and LLPLPPPPPPPP are within error of each other in protein stability index: 0.6915 ± 0.0026 for the first, 0.685 ± 0.063 for the second.

Going from LLPLRPRSLGPP to LLPPALPESPPP, the protein stability index falls from 0.693 ± 0.0011 to 0.649 ± 0.0072.

LLPPPSTPPRLI and LLPPTPIAFPPS are within error of each other in protein stability index: 0.716 ± 0.052 for the first, 0.728 ± 0.073 for the second.

LLRALPSYRPFP and LLRLPCHLSQAS are within error of each other in protein stability index: 0.696 ± 0.016 for the first, 0.68 ± 0.035 for the second.

First: LLRSSPPLPPPS
Second: LLSNTINRIWRN
The protein stability index of the first is higher: 0.737 ± 0.029 for the first, 0.658 ± 0.018 for the second.

LLSSIPSLMFYY and LLSSLLLDQPYR are within error of each other in protein stability index: 0.667 ± 0.046 for the first, 0.6455 ± 0.0036 for the second.

LLSSPPSPGFSL and LLSVVLPDSSLP are within error of each other in protein stability index: 0.748 ± 0.12 for the first, 0.738 ± 0.065 for the second.

LLTCRPPQCLLC and LLTGCVPVLIRK are within error of each other in protein stability index: 0.6303 ± 0.0038 for the first, 0.707 ± 0.093 for the second.

LLTLPPPRLLSL and LLTSFFTLFCNT are within error of each other in protein stability index: 0.629 ± 0.022 for the first, 0.657 ± 0.05 for the second.

Compared with LLVREVGVERTF, LLVSVHFSPPLY is lower in protein stability index: 0.7636 ± 0.0024 for the first, 0.5515 ± 0.0023 for the second.

LMFGDPIEANKE and LMGASAAFIKKG are within error of each other in protein stability index: 0.67 ± 0.01 for the first, 0.601 ± 0.067 for the second.

LMYPGTSPLSPH and LNEVSLLSPAPL are within error of each other in protein stability index: 0.711 ± 0.092 for the first, 0.64 ± 0.057 for the second.

LNHSLLHILSRV and LNLSIRDVTSSG are within error of each other in protein stability index: 0.656 ± 0.022 for the first, 0.657 ± 0.013 for the second.

LNPLAILCSSVF and LNSSRLSFFCLE are within error of each other in protein stability index: 0.617 ± 0.037 for the first, 0.689 ± 0.079 for the second.

LNWISKQVTEKH and LPAFAPLCLPTL are within error of each other in protein stability index: 0.676 ± 0.013 for the first, 0.703 ± 0.02 for the second.

LPASWSRVSFAG and LPCPSFPSLPFL are within error of each other in protein stability index: 0.6825 ± 0.0034 for the first, 0.646 ± 0.1 for the second.

LPGFPGPSCICH and LPHPRPPQSPPQ are within error of each other in protein stability index: 0.703 ± 0.21 for the first, 0.7 ± 0.03 for the second.

LPLLLPFRTPDF and LPLLPLPSLSPP are within error of each other in protein stability index: 0.693 ± 0.015 for the first, 0.713 ± 0.035 for the second.

LPLLRWASPRGF and LPLPPLPPGMLS are within error of each other in protein stability index: 0.685 ± 0.0042 for the first, 0.747 ± 0.073 for the second.

First: LPLPPPSPFPPL
Second: LPLQPSSNLTCL
The protein stability index of the first is lower: 0.691 ± 0.015 for the first, 0.70856 ± 0.00024 for the second.

Going from LPLSLPTPPALD to LPPATMFFISAS, the protein stability index falls from 0.716 ± 0.075 to 0.558 ± 0.019.

LPPCPLFPPVHF and LPPCPPGGRRSR are within error of each other in protein stability index: 0.757 ± 0.1 for the first, 0.706 ± 0.036 for the second.

LPPFLLPPFFSI and LPPFPPPSAPPS are within error of each other in protein stability index: 0.718 ± 0.055 for the first, 0.792 ± 0.023 for the second.

Going from LPPHRSSTPPPA to LPPLLDSPPCSP, the protein stability index rises from 0.644 ± 0.02 to 0.733 ± 0.04.

LPPLPPIAPPPP and LPPLPPPSPFPS are within error of each other in protein stability index: 0.8126 ± 0.0041 for the first, 0.762 ± 0.074 for the second.

LPPLPPSPPPLP and LPPLPRPLLLPR are within error of each other in protein stability index: 0.685 ± 0.024 for the first, 0.661 ± 0.044 for the second.

LPPPAPRSHCPL and LPPPLPPCPSGP are within error of each other in protein stability index: 0.725 ± 0.098 for the first, 0.77 ± 0.048 for the second.

LPPPPFPPPKPF and LPPPPLPPHPPL are within error of each other in protein stability index: 0.683 ± 0.0084 for the first, 0.748 ± 0.067 for the second.

LPPPPLPQAPPT and LPPPPPCPPSPL are within error of each other in protein stability index: 0.702 ± 0.075 for the first, 0.671 ± 0.024 for the second.

LPPPPPPPASPD and LPPPPPPPPLPH are within error of each other in protein stability index: 0.699 ± 0.058 for the first, 0.705 ± 0.1 for the second.

Going from LPPPPTCYDHPL to LPPPPTFPPPRS, the protein stability index rises from 0.676 ± 0.052 to 0.8307 ± 0.0063.

LPPPSAPFPLPP and LPPPSPLPNSPL are within error of each other in protein stability index: 0.743 ± 0.026 for the first, 0.716 ± 0.13 for the second.

LPPPSPPSSAPP and LPPPSPPTPPFP are within error of each other in protein stability index: 0.734 ± 0.049 for the first, 0.691 ± 0.018 for the second.

LPPPSPTPPPPP and LPPRPPRPPPSP are within error of each other in protein stability index: 0.683 ± 0.019 for the first, 0.666 ± 0.019 for the second.

LPPSLPPRLPPP and LPPSPILFPASP are within error of each other in protein stability index: 0.658 ± 0.04 for the first, 0.754 ± 0.072 for the second.

LPPSPPLPCPLL and LPPSPRLSFSPP are within error of each other in protein stability index: 0.75 ± 0.048 for the first, 0.701 ± 0.034 for the second.

LPPSRSLLPPRP and LPPTPSSRGPHS are within error of each other in protein stability index: 0.6531 ± 0.0059 for the first, 0.669 ± 0.019 for the second.

Going from LPQPQPPVPPPL to LPRPAPPIRPRT, the protein stability index rises from 0.7209 ± 0.0042 to 0.74 ± 0.013.

LPRPLSPPLPSP and LPRPPPPPALPT are within error of each other in protein stability index: 0.702 ± 0.042 for the first, 0.66 ± 0.087 for the second.

LPRPPPRYLPPL and LPRRLLFSYPTF are within error of each other in protein stability index: 0.711 ± 0.059 for the first, 0.647 ± 0.02 for the second.

LPSAPLLPLLRP and LPSASPPSPPPP are within error of each other in protein stability index: 0.68 ± 0.041 for the first, 0.652 ± 0.037 for the second.

LPSLSSFALHMP and LPSPPVSIPYPS are within error of each other in protein stability index: 0.685 ± 0.018 for the first, 0.671 ± 0.029 for the second.

LPSPSGSPVPFL and LPSPSSTLSPLR are within error of each other in protein stability index: 0.771 ± 0.041 for the first, 0.674 ± 0.059 for the second.

LPSPTTNLFKPN and LPSSCVLHMFFP are the same in protein stability index: 0.711 ± 0.0091 for the first, 0.7111 ± 0.0024 for the second.

LPTLPGWKASCL and LPTPFKSSPSAA are the same in protein stability index: 0.674 ± 0.032 for the first, 0.674 ± 0.024 for the second.

Going from LPVGYVCGLWVG to LPVSGLRAAGAM, the protein stability index rises from 0.543 ± 0.038 to 0.7154 ± 0.0034.

LQALQTKPSQAL and LQDLPRLHALPN are within error of each other in protein stability index: 0.688 ± 0.083 for the first, 0.727 ± 0.086 for the second.

First: LQHRHSTSPRPT
Second: LQRVPTDAVPDC
The protein stability index of the first is lower: 0.657 ± 0.037 for the first, 0.7074 ± 0.0044 for the second.

LQWSPQAELEGT and LRCVPAVFFACK are within error of each other in protein stability index: 0.712 ± 0.043 for the first, 0.647 ± 0.045 for the second.

First: LRERKVYLVKIK
Second: LRETDGSGQYVR
The protein stability index of the first is lower: 0.575 ± 0.006 for the first, 0.686 ± 0.014 for the second.

First: LRFWCFGDVCPV
Second: LRGACWLARTRT
The protein stability index of the first is higher: 0.754 ± 0.057 for the first, 0.677 ± 0.018 for the second.

LRGEGPGRKGGA and LRGPRTSTPLST are within error of each other in protein stability index: 0.67 ± 0.05 for the first, 0.714 ± 0.036 for the second.

LRGVACCSPILG and LRHWKALVTYLL are within error of each other in protein stability index: 0.631 ± 0.036 for the first, 0.566 ± 0.052 for the second.

Compared with LRIGTCYCGVAW, LRLLYGYWGKFL is lower in protein stability index: 0.814 ± 0.049 for the first, 0.547 ± 0.0072 for the second.

LRLRGCSATVPG and LRLSSFSFSRLS are within error of each other in protein stability index: 0.752 ± 0.063 for the first, 0.701 ± 0.16 for the second.

First: LRNCSVSGSIEW
Second: LRPFSRVLRARS
The protein stability index of the first is higher: 0.699 ± 0.019 for the first, 0.628 ± 0.019 for the second.

LRPLPPRHPPAP and LRPPPPPAQPFV are within error of each other in protein stability index: 0.624 ± 0.069 for the first, 0.69 ± 0.033 for the second.

LRPSLPCPPFCP and LRPTPLPRPSPA are within error of each other in protein stability index: 0.641 ± 0.057 for the first, 0.691 ± 0.024 for the second.

LRQEVVRPEWYM and LRRKSLHFSFPF are within error of each other in protein stability index: 0.66 ± 0.054 for the first, 0.618 ± 0.054 for the second.

Compared with LRRSRQGGSGRR, LRRVGKLRESGS is higher in protein stability index: 0.6 ± 0.044 for the first, 0.688 ± 0.018 for the second.

Going from LRSIQVHLGSTA to LRSPAILFSFAF, the protein stability index falls from 0.6992 ± 0.0043 to 0.602 ± 0.043.

LRSPGSHIVRLT and LRVRLSVLLPLD are within error of each other in protein stability index: 0.569 ± 0.035 for the first, 0.578 ± 0.0093 for the second.

LRVTPYTPRSYP and LRVVWNLSSRAI are within error of each other in protein stability index: 0.732 ± 0.058 for the first, 0.636 ± 0.059 for the second.

LRWGLFSLAWVT and LRYLEGWWVLRW are within error of each other in protein stability index: 0.5437 ± 0.00065 for the first, 0.554 ± 0.063 for the second.

LSALQQSSAPSI and LSCSLSWFFSSV are within error of each other in protein stability index: 0.691 ± 0.057 for the first, 0.679 ± 0.083 for the second.

LSFFPPPLPPSS and LSFHSYLSPFYL are within error of each other in protein stability index: 0.71 ± 0.044 for the first, 0.664 ± 0.051 for the second.

LSFLSDVRHIRE and LSGWIRTLLPET are within error of each other in protein stability index: 0.643 ± 0.1 for the first, 0.674 ± 0.047 for the second.

LSGYTLRRIISQ and LSLPPLRPPYPP are within error of each other in protein stability index: 0.704 ± 0.063 for the first, 0.678 ± 0.091 for the second.

LSLVSGWVIPGV and LSNATPAHAGKP are within error of each other in protein stability index: 0.687 ± 0.051 for the first, 0.706 ± 0.13 for the second.

LSPGRPPRPPRR and LSPLPTPLRPNS are within error of each other in protein stability index: 0.702 ± 0.041 for the first, 0.68 ± 0.025 for the second.

LSPPPLPPVPSP and LSPPPPPLPPPL are within error of each other in protein stability index: 0.712 ± 0.015 for the first, 0.622 ± 0.12 for the second.

LSPPSSPPPTPS and LSSCPRIMVPIT are within error of each other in protein stability index: 0.714 ± 0.076 for the first, 0.777 ± 0.11 for the second.

Going from LSSITLTYVSDF to LSSLLFFLSWVV, the protein stability index falls from 0.781 ± 0.12 to 0.529 ± 0.018.

Compared with LSSLPSTFPPLP, LSTCRYMLRLAY is lower in protein stability index: 0.692 ± 0.029 for the first, 0.5233 ± 0.0021 for the second.

Compared with LSTPFFFVPLTL, LSVLNTQFGFGS is higher in protein stability index: 0.621 ± 0.007 for the first, 0.6751 ± 0.0054 for the second.

LSVQFVSQHTRV and LSVSSLMFNWRS are within error of each other in protein stability index: 0.664 ± 0.024 for the first, 0.707 ± 0.02 for the second.
